Literature values as cited in paper PMC2939181.

Molecular target: CPT-1 (UniProt P50416)
Test: FRET

Sequence of UniProt P50416 (P50416 2-773): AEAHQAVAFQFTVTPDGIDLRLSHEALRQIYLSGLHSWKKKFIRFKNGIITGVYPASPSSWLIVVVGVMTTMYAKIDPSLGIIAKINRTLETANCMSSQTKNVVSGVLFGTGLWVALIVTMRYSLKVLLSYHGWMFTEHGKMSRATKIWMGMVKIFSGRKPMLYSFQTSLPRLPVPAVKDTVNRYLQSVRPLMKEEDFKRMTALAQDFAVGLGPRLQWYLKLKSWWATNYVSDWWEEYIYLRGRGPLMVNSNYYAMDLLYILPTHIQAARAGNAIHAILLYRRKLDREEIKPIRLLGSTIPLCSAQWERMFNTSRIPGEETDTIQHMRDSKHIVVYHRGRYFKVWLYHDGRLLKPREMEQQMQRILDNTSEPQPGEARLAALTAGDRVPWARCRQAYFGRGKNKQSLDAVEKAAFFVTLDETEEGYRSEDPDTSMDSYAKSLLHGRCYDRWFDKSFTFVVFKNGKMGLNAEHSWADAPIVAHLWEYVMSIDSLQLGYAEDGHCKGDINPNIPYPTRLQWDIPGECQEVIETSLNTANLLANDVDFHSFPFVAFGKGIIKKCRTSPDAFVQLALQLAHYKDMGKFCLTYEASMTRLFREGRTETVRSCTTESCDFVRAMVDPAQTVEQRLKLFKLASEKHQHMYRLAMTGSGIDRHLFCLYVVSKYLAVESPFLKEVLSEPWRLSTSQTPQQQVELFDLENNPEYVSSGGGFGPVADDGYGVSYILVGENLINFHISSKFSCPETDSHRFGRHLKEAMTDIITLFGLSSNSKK

For L-FABP (from UniProt P07148), the Kd is given as 2.1 nM.
